Measurements published in patent US20170015758A1.

Experiments:
PD-L1 (human) = PD-L1 (human) (UniProt Q9NZQ7); test: cell-based or functional assay
PD1 (human) = PD1 (human) (UniProt Q15116); test: cell-based or functional assay
UniProt Q15116, sequence (Q15116 25-288): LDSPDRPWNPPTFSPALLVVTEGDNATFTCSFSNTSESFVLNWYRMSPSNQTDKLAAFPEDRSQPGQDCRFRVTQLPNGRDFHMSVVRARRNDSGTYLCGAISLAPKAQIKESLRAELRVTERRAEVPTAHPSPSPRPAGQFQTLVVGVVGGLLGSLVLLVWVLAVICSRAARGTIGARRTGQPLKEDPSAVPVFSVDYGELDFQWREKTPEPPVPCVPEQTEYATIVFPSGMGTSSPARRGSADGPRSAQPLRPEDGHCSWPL

UniProt Q9NZQ7, sequence (Q9NZQ7 19-290): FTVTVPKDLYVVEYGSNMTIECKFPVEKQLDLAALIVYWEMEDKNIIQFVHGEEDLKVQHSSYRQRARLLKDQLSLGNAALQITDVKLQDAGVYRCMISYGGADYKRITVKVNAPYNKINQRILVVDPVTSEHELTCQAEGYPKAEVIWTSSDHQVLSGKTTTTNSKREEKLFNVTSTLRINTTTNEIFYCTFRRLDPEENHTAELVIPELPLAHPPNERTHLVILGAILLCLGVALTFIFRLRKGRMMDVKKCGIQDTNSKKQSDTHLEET

Substance | tumor-specific cytolytic activity, fresh T cells, PD-L1 inhibition alone (PD-L1 (human)) [%] | MEDI-565-mediated cytolysis of SW1463 with fresh T cells in the presence of anti-PD1 (PD1 (human)) [%] | tumor killing in second round, T cells previously incubated with MEDI-565 and tumor, anti-PD1 added (PD1 (human)) [%] | tumor-specific cytolytic activity, fresh T cells, PD1 inhibition alone (PD1 (human)) [%]
Anti-PD-L1 (clone MIH1) (antibody) | 49.9 | – | – | –
Anti-PD1 (clone J116) (antibody) | – | 66.3 | 37.1 | 49.9
